In patent publication US20230183366A1:

Molecular target: Cohesin-human OX40 ectodomain protein (human) (UniProt P43489)
Assay: SPR, antibody captured on protein A, soluble cohesin-human OX40 ectodomain injected

UniProt P43489, sequence (P43489 26-211 limits assumed, form in doubt): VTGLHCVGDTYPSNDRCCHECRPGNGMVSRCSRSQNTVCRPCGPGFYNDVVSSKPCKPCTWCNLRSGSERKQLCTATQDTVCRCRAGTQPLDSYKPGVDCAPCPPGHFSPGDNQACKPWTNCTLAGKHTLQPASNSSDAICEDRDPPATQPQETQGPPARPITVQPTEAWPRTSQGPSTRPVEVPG

B1: humanized anti OX40 Ab24 IgG1 (antibody, V domains shown)
VH: QVQLQESGPGLVKPSQTLSLTCAVYGGSFSSGYWNWIRKHPGKGLEYIGYISYNGITYHNPSLKSRITINRDTSKNQYSLQLNSVTPEDTAVYYCARYKYDYDGGHAMDYWGQGTLVTVSS
VL: DIQMTQSPSSLSASVGDRVTITCRASQDISNYLNWYQQKPGKAPKLLIYYTSKLHSGVPSRFSGSGSGTDYTLTISSLQPEDFATYYCQQGSALPWTFGQGTKVEIKR
Kd: 131 nM | bracketed ratio of KD relative to Anti-OX40 IgG1: 1 | bracketed ratio of Ka relative to Anti-OX40 IgG1: 1 | bracketed ratio of kd relative to Anti-OX40 IgG1: 1 | koff: 0.0019 s⁻¹ | kon: 14000 M⁻¹ s⁻¹
